Laboratory results: patent US12630850B2, “Enzymatic break down of chlorogenic acid in sunflower-containing products” (Chapman University, priority 2022, dated 2026)

Key:
[1] = CGA and CA content of sunflower protein isolates (HPLC); format: biochemical; settings: enzyme present
Description: Sunflower meal and sunflower protein treatment with chlorogenic acid esterase. Sunflower seeds were ground using a KitchenAid coffee grinder in two 30 s increments and sieved through a 500 μm filter to make SFM. Two defatting methods were used: cold press and hexane extraction. To make cold pressed SFM, ground seeds were pressed in a Carver Hydraulic Unit Model 3912 3852-0 five times to a pressure of 9,000-10,000 psi. For hexane extracted SFM, fat was removed from ground seeds using a Soxhlet apparatus in 250 mL hexane for 18 h and subsequently dried using a Fischer Scientific Isotemp Oven Model 516G at 45° C. for 3 h. Cold pressed, hexane extracted, and undefatted SFM were then sieved through a 500 μm filter.
To make SPI, 12.5 g of cold pressed, hexane extracted, and undefatted SFM were buffered in 50 mM HEPES at pH 8.0. Samples were continuously stirred for about 10 min until all SFM was completely suspended. Then, 0.2 mg of CGA esterase per g of SFM was added. The final volume for all reactions was 125 mL. In untreated samples, a buffered solution of 50 mM HEPES, pH 8.0 was added instead of the enzyme solution. After 10 min, 0.1 M NaOH was added to each solution until pH reached 9.00±0.03. Samples were left to sit for 30 min and then centrifuged at 5,000 rpm for 20 min at 4° C. The supernatant was placed back into a 250 mL beaker and pH was lowered using 0.1 M HCl to reach an isoelectric pH of 5.00±0.03. Samples were allowed to precipitate at 4° C. overnight (14-16 h). The supernatant was discarded, and the precipitate was lyophilized for 20 h. All experiments (controls and CGA esterase treated samples) were duplicated.
HPLC quantification of CGA and CA in sunflower meal and protein isolates. All solutions were diluted ten-fold in 0.1% formic acid in HPLC-grade water before analysis. Quantification of CGA and CA concentration was performed using an Agilent 1260 series HPLC instrument (Agilent Technologies) equipped with a quaternary pump, an automated sample injector, a diode array detector, and a 4.6 mm×150 mm Luna C18(2) column with a 5 μm particle size and 100 Å pore size (Phenomenex). The injection volume was 20 μL. To elute analytes, mobile phases composed of 0.1% formic acid in HPLC-grade water (A) and 0.1% formic acid in HPLC-grade acetonitrile (B) were used in a linear gradient. The gradient is as follows: 0 to 13% B in 1 min, up to 27% B at 8 min, up to 100% B at 8.5 min, isocratic at 100% B to 9.5 min, 100% B returned to 0% B at 9.6 min with 3 min post-time. The concentrations of CGA and CA were calculated from peak integration data based on 10-point standard curve that spanned a concentration range of 0 to 0.1 mg mL^−1.

[2] = HPLC quantification of CGA in sunflower flour cookies; format: biochemical; settings: SFF cookies; 0.09 mg/g flour, pre- and direct treatment
Description: Cookie formulations and baking conditions. The cookie dough formulation consisted of baking soda (2.2 g), salt (2.2 g), whole egg (46.8 g), maple syrup (76.3 g), vanilla extract (2.2 g), flour (145.8 g), and butter (87.5 g). CGA esterase treatments in SFF, utilized almond butter instead of SFB. The wet (sunflower or almond butter, maple syrup, eggs, and vanilla extract) and dry (flour, baking soda, and salt) ingredients were mixed separately and subsequently combined and mixed for 75 s with an electric hand mixer. The dough was rolled out and cut to the following dimensions: 6 mm thickness and 40 mm diameter. Cookies were baked for 7 min in a convection oven preheated to 149° C. (300° F.) and allowed to cool at room temperature for 10 min before further analysis.
Preparation of sunflower flour cookies with CGA esterase. […]
High-performance liquid chromatography (HPLC) quantification of phenolic content in sunflower cookies. […] The extract was filtered through 0.20 μm syringe filters and analyzed with an Agilent 1260 Infinity II system (Agilent Technologies) equipped with a quaternary pump (G7111B), vial sampler (G7129A), and diode array detector (HS G7117C). […] CGA and caffeic acid concentrations were detected at 320 nm and quantified using a standard curve between 0.00-0.10 mg ml^−1 CGA (y=172287x, R^2=0.994) and caffeic acid (y=248557x, R^2=0.967).

B1: CGA esterase: CGA esterase from L. helveticus (Genbank ID: WP_025283955.1, Uniprot ID: U6F2K7), expressed in Escherichia coli; the dimer is the active form (protein, listed as Lactobacillus helveticus)
chain: MSRITIERDGLTLVGDREEPFGEIYDMAIIMHGFAANRNTDLLRQIADDLRDENVASVRFDFNGHGESDGKFEDMTVCNEIADGKAILDYVRTDPHVRDIFLVGHSQGGVVASMLAGLYPDVVKKVVLLAPAAQLKDDALRSNTQGATYDPNHIPDWPLVGNKLGMKLGGFYLRTAQVLPIYEVSQCFTRPVSVIAGTNDQWDPKYAKKYDEVYENSELHMIPNADHRFSGGYKDMAADLTAQFLKPAF
mg CA/g protein ([1]; SPI from cold pressed SFM): 3.62 ± 0.05 mg CA/g protein | mg CGA/g protein ([1]; SPI from cold pressed SFM): 0.00 ± 0.00 mg CGA/g protein | mg CA/g protein ([1]; SPI from hexane extracted SFM): 3.38 ± 0.25 mg CA/g protein | mg CGA/g protein ([1]; SPI from hexane extracted SFM): 0.00 ± 0.00 mg CGA/g protein | mg CA/g protein ([1]; SPI from undefatted SFM): 1.11 ± 0.38 mg CA/g protein | mg CGA/g protein ([1]; SPI from undefatted SFM): 0.00 ± 0.00 mg CGA/g protein | Effect of enzyme addition on CGA [2]: nearly complete elimination of CGA
